Here are results for four substances from patent US20240409637A1.

The target of assay [1] is human CD8 alpha and beta subunit on JRT3.T3/AP1-Luc/CD28/CD8AB/1G4AB clone 18 reporter T cells (human) (UniProt P01732). Nature of the assay: cell-based or functional assay.
The target in assay [2] is human CD8 on cells (primary human CD8 positive T cells; T cells of mice expressing hCD8; human PBMC-derived lymphocytes) (human) (UniProt P01732). The assay is described as follows: cell-based or functional assay.
Chain of human CD8 on cells (primary human CD8 positive T cells; T cells of mice expressing hCD8; human PBMC-derived lymphocytes) (human) (P01732 22-235, chain 1 of 2): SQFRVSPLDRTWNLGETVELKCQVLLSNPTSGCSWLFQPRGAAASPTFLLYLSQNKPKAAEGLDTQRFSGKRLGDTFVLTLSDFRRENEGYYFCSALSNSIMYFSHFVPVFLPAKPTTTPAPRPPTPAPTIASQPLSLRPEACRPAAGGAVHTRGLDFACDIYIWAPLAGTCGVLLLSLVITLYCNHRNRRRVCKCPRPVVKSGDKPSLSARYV
Chain of human CD8 on cells (primary human CD8 positive T cells; T cells of mice expressing hCD8; human PBMC-derived lymphocytes) (human) (chain, as listed by the source, chain 2 of 2): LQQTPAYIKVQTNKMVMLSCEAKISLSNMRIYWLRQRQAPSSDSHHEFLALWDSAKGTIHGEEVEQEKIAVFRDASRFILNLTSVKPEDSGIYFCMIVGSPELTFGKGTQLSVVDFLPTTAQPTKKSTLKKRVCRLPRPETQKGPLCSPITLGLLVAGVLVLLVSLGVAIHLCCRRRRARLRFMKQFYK

Chain of human CD8 alpha and beta subunit on JRT3.T3/AP1-Luc/CD28/CD8AB/1G4AB clone 18 reporter T cells (human) (P01732 22-235, chain 1 of 2): as the sequence (P01732 22-235, chain 1 of 2) above
Chain of human CD8 alpha and beta subunit on JRT3.T3/AP1-Luc/CD28/CD8AB/1G4AB clone 18 reporter T cells (human) (P10966 22-210, chain 2 of 2, further chain): as the sequence (chain, as listed by the source, chain 2 of 2) above

Isotype 2 (antibody) yielded a Reduction of T cell response at 100 nM [%], CD8 T cell/APC luciferase assay in assay [1] of 6.2%.

As for Isotype 1 (antibody), the Reduction of T cell response at 100 nM [%], CD8 T cell/APC luciferase assay in assay [1] came to 7.4%.

Take “isotype control antibody (irrelevant isotype matched antibody)”: in assay [2], the Percent Inhibition of IFNγ Production, one-way MLR Reaction 1, 0.5 nM antibody was found to be 0.5%; the Percent Inhibition of IFNγ Production, one-way MLR Reaction 1, 5 nM antibody was determined as 3.9%; the Percent Inhibition of IFNγ Production, one-way MLR Reaction 1, 50 nM antibody was -6.6%; the Percent Inhibition of IFNγ Production, one-way MLR Reaction 2, 0.5 nM antibody was determined as 2.3%. In assay [2], this substance yielded a Percent Inhibition of IFNγ Production, one-way MLR Reaction 2, 5 nM antibody of 3.4% and a Percent Inhibition of IFNγ Production, one-way MLR Reaction 2, 50 nM antibody of 25.4%.

In assay [1], “Clone RPA-T8 (commercially available anti-CD8 antibody)” displayed an IC50 [M], reduction of AP1-luciferase activity in CD8 T cell/APC luciferase assay of 1.61e-10 M and a Reduction of T cell response at 100 nM [%], CD8 T cell/APC luciferase assay of 97.9%.
